# Assay results from US20210246166A1 (Bayer, published 2021).
# Bridge positions count the residues as written; N and C are the ends. Square brackets hold non-standard residues; d marks the D form. Ends that are not written are not given here. Pro(cis-4-CF3) = O=C(O)[C@@H]1C[C@H](C(F)(F)F)CN1; Oic = O=C(O)[C@@H]1C[C@@H]2CCCC[C@@H]2N1; Phe(2-Br) = N[C@@H](Cc1ccccc1Br)C(=O)O; Nva(3-Et) = CCC(CC)[C@H](N)C(=O)O; NMeI = CC[C@H](C)[C@H](NC)C(=O)O; tBuAla = CC(C)(C)C[C@H](N)C(=O)O; Chg = N[C@H](C(=O)O)C1CCCCC1; Pen = CC(C)(S)[C@H](N)C(=O)O; NMeC = CN[C@@H](CS)C(=O)O; NMeA = CN[C@@H](C)C(=O)O; Orn = NCCC[C@H](N)C(=O)O; Abu = CC[C@H](N)C(=O)O
# T1: recombinant rat MASP1 active protease (amino acids 302-704, C-terminal His Tag) (rat, UniProt Q8CHN8 302-704)
# T1 sequence: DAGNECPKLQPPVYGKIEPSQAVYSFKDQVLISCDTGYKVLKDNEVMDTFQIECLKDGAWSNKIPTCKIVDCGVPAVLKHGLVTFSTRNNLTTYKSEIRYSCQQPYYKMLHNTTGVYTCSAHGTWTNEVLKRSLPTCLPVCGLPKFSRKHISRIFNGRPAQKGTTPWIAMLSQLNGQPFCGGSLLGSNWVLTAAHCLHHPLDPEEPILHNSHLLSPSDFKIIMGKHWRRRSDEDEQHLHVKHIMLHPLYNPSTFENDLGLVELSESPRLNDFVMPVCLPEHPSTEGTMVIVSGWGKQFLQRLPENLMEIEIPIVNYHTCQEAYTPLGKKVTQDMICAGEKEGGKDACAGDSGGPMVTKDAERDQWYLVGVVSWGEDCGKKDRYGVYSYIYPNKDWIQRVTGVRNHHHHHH
# B1: Example 123: AIC+SRSLP-(Oic)-I-((N-Me)C)+IP-NH2 (peptide)
# peptide: AICSRSLP[Oic]I[NMeC]IP-NH2
# modifications: disulfide 3-11; N-terminus assumed
# SMILES: CC[C@H](C)[C@H](NC(=O)[C@H](C)N)C(=O)N[C@H]1CSSC[C@@H](C(=O)N[C@H](C(=O)N2CCC[C@H]2C(N)=O)[C@@H](C)CC)N(C)C(=O)[C@H]([C@@H](C)CC)NC(=O)[C@@H]2C[C@@H]3CCCC[C@@H]3N2C(=O)[C@@H]2CCCN2C(=O)[C@H](CC(C)C)NC(=O)[C@H](CO)NC(=O)[C@H](CCCNC(=N)N)NC(=O)[C@H](CO)NC1=O
# B2: Example 99: AIC+SRS-((tBu)A)-P-(Oic)-IC+I-NH2 (peptide)
# peptide: AICSRS[tBuAla]P[Oic]ICI-NH2
# modifications: disulfide 3-11; N-terminus assumed
# SMILES: CC[C@H](C)[C@H](NC(=O)[C@@H]1CSSC[C@H](NC(=O)[C@@H](NC(=O)[C@H](C)N)[C@@H](C)CC)C(=O)N[C@@H](CO)C(=O)N[C@@H](CCCNC(=N)N)C(=O)N[C@@H](CO)C(=O)N[C@@H](CC(C)(C)C)C(=O)N2CCC[C@H]2C(=O)N2[C@@H](C[C@@H]3CCCC[C@@H]32)C(=O)N[C@@H]([C@@H](C)CC)C(=O)N1)C(N)=O
# B3: Example 98: AIC+SRS-((tBu)A)-PPI-(Pen)+IPD-NH2 (peptide)
# peptide: AICSRS[tBuAla]PPI[Pen]IPD-NH2
# modifications: disulfide 3-11; N-terminus assumed
# SMILES: CC[C@H](C)[C@H](NC(=O)[C@H](C)N)C(=O)N[C@H]1CSSC(C)(C)[C@@H](C(=O)N[C@H](C(=O)N2CCC[C@H]2C(=O)N[C@@H](CC(=O)O)C(N)=O)[C@@H](C)CC)NC(=O)[C@H]([C@@H](C)CC)NC(=O)[C@@H]2CCCN2C(=O)[C@@H]2CCCN2C(=O)[C@H](CC(C)(C)C)NC(=O)[C@H](CO)NC(=O)[C@H](CCCNC(=N)N)NC(=O)[C@H](CO)NC1=O
# B4: Example 169: (Abu)-IC+SRSLPP-(Chg)-C+IPD-NH2 (peptide)
# peptide: [Abu]ICSRSLPP[Chg]CIPD-NH2
# modifications: disulfide 3-11; N-terminus assumed
# SMILES: CC[C@H](N)C(=O)N[C@H](C(=O)N[C@H]1CSSC[C@@H](C(=O)N[C@H](C(=O)N2CCC[C@H]2C(=O)N[C@@H](CC(=O)O)C(N)=O)[C@@H](C)CC)NC(=O)[C@H](C2CCCCC2)NC(=O)[C@@H]2CCCN2C(=O)[C@@H]2CCCN2C(=O)[C@H](CC(C)C)NC(=O)[C@H](CO)NC(=O)[C@H](CCCNC(=N)N)NC(=O)[C@H](CO)NC1=O)[C@@H](C)CC
# B5: Example 181: FIC+SRS-((tBu)A)-PPI-((N-Me)C)+I-NH2 (peptide)
# peptide: FICSRS[tBuAla]PPI[NMeC]I-NH2
# modifications: disulfide 3-11; N-terminus assumed
# SMILES: CC[C@H](C)[C@H](NC(=O)[C@@H]1CSSC[C@H](NC(=O)[C@@H](NC(=O)[C@@H](N)Cc2ccccc2)[C@@H](C)CC)C(=O)N[C@@H](CO)C(=O)N[C@@H](CCCNC(=N)N)C(=O)N[C@@H](CO)C(=O)N[C@@H](CC(C)(C)C)C(=O)N2CCC[C@H]2C(=O)N2CCC[C@H]2C(=O)N[C@@H]([C@@H](C)CC)C(=O)N1C)C(N)=O
# B6: Example 108: AIC+SRS-((tBu)A)-P-(Oic)-I-(Pen)+IPD-NH2 (peptide)
# peptide: AICSRS[tBuAla]P[Oic]I[Pen]IPD-NH2
# modifications: disulfide 3-11; N-terminus assumed
# SMILES: CC[C@H](C)[C@H](NC(=O)[C@H](C)N)C(=O)N[C@H]1CSSC(C)(C)[C@@H](C(=O)N[C@H](C(=O)N2CCC[C@H]2C(=O)N[C@@H](CC(=O)O)C(N)=O)[C@@H](C)CC)NC(=O)[C@H]([C@@H](C)CC)NC(=O)[C@@H]2C[C@@H]3CCCC[C@@H]3N2C(=O)[C@@H]2CCCN2C(=O)[C@H](CC(C)(C)C)NC(=O)[C@H](CO)NC(=O)[C@H](CCCNC(=N)N)NC(=O)[C@H](CO)NC1=O
# B7: Example 128: AIC+SRS-((tBu)A)-P-((4-CF3)P)-I-((N-Me)C)+IPD-NH2 (peptide)
# peptide: AICSRS[tBuAla]P[Pro(cis-4-CF3)]I[NMeC]IPD-NH2
# modifications: disulfide 3-11; N-terminus assumed
# SMILES: CC[C@H](C)[C@H](NC(=O)[C@H](C)N)C(=O)N[C@H]1CSSC[C@@H](C(=O)N[C@H](C(=O)N2CCC[C@H]2C(=O)N[C@@H](CC(=O)O)C(N)=O)[C@@H](C)CC)N(C)C(=O)[C@H]([C@@H](C)CC)NC(=O)[C@@H]2C[C@H](C(F)(F)F)CN2C(=O)[C@@H]2CCCN2C(=O)[C@H](CC(C)(C)C)NC(=O)[C@H](CO)NC(=O)[C@H](CCCNC(=N)N)NC(=O)[C@H](CO)NC1=O
# B8: Example 186: (Orn)-IC+SRS-((tBu)A)-PPIC+I-NH2 (peptide)
# peptide: [Orn]ICSRS[tBuAla]PPICI-NH2
# modifications: disulfide 3-11; N-terminus assumed
# SMILES: CC[C@H](C)[C@H](NC(=O)[C@@H]1CSSC[C@H](NC(=O)[C@@H](NC(=O)[C@@H](N)CCCN)[C@@H](C)CC)C(=O)N[C@@H](CO)C(=O)N[C@@H](CCCNC(=N)N)C(=O)N[C@@H](CO)C(=O)N[C@@H](CC(C)(C)C)C(=O)N2CCC[C@H]2C(=O)N2CCC[C@H]2C(=O)N[C@@H]([C@@H](C)CC)C(=O)N1)C(N)=O
# B9: Example 205: G-((N-Me)I)-C+SRSLPPIC+IPD-NH2 (HCl salt) (peptide)
# peptide: G[NMeI]CSRSLPPICIPD-NH2
# modifications: disulfide 3-11; also: HCl salt
# B10: Example 104: AIC+SRS-((2-Bromo)F)-PPI-(Pen)+IPD-NH2 (peptide)
# peptide: AICSRS[Phe(2-Br)]PPI[Pen]IPD-NH2
# modifications: disulfide 3-11; N-terminus assumed
# SMILES: CC[C@H](C)[C@H](NC(=O)[C@H](C)N)C(=O)N[C@H]1CSSC(C)(C)[C@@H](C(=O)N[C@H](C(=O)N2CCC[C@H]2C(=O)N[C@@H](CC(=O)O)C(N)=O)[C@@H](C)CC)NC(=O)[C@H]([C@@H](C)CC)NC(=O)[C@@H]2CCCN2C(=O)[C@@H]2CCCN2C(=O)[C@H](Cc2ccccc2Br)NC(=O)[C@H](CO)NC(=O)[C@H](CCCNC(=N)N)NC(=O)[C@H](CO)NC1=O
# B11: Example 182: YIC+SRS-((tBu)A)-PPI-((N-Me)C)+I-NH2 (peptide)
# peptide: YICSRS[tBuAla]PPI[NMeC]I-NH2
# modifications: disulfide 3-11; N-terminus assumed
# SMILES: CC[C@H](C)[C@H](NC(=O)[C@@H]1CSSC[C@H](NC(=O)[C@@H](NC(=O)[C@@H](N)Cc2ccc(O)cc2)[C@@H](C)CC)C(=O)N[C@@H](CO)C(=O)N[C@@H](CCCNC(=N)N)C(=O)N[C@@H](CO)C(=O)N[C@@H](CC(C)(C)C)C(=O)N2CCC[C@H]2C(=O)N2CCC[C@H]2C(=O)N[C@@H]([C@@H](C)CC)C(=O)N1C)C(N)=O
# B12: Example 103: SIC+SRS-((tBu)A)-PPI-((N-Me)C)+I-NH2 (peptide)
# peptide: SICSRS[tBuAla]PPI[NMeC]I-NH2
# modifications: disulfide 3-11; N-terminus assumed
# SMILES: CC[C@H](C)[C@H](NC(=O)[C@@H]1CSSC[C@H](NC(=O)[C@@H](NC(=O)[C@@H](N)CO)[C@@H](C)CC)C(=O)N[C@@H](CO)C(=O)N[C@@H](CCCNC(=N)N)C(=O)N[C@@H](CO)C(=O)N[C@@H](CC(C)(C)C)C(=O)N2CCC[C@H]2C(=O)N2CCC[C@H]2C(=O)N[C@@H]([C@@H](C)CC)C(=O)N1C)C(N)=O
# B13: Example 175: ((N-Me)A)-IC+SRS-((tBu)A)-PPI-((N-Me)C)+IPD-NH2 (peptide)
# peptide: [NMeA]ICSRS[tBuAla]PPI[NMeC]IPD-NH2
# modifications: disulfide 3-11; N-terminus assumed
# SMILES: CC[C@H](C)[C@H](NC(=O)[C@H](C)NC)C(=O)N[C@H]1CSSC[C@@H](C(=O)N[C@H](C(=O)N2CCC[C@H]2C(=O)N[C@@H](CC(=O)O)C(N)=O)[C@@H](C)CC)N(C)C(=O)[C@H]([C@@H](C)CC)NC(=O)[C@@H]2CCCN2C(=O)[C@@H]2CCCN2C(=O)[C@H](CC(C)(C)C)NC(=O)[C@H](CO)NC(=O)[C@H](CCCNC(=N)N)NC(=O)[C@H](CO)NC1=O
# B14: Example 102: AIC+SRSLP-(rel-(1R,3R,5R,6R)-6-(Trifluoromethyl)-2-azabicyclo[3.1.0]hexane-3-carboxylic acid)-IC+IPD-NH2 (peptide)
# peptide: AICSRSLP[rel‑(1R,3R,5R,6R)‑6‑(Trifluoromethyl)‑2‑azabicyclo(3.1.0)hexane‑3‑carboxylic acid]ICIPD-NH2
# modifications: disulfide 3-11
# B15: Example 209: AIC+SRSLPP-((S)-2-amino-3-ethyl-pentanoic acid)-C+IPD-NH2 (peptide)
# peptide: AICSRSLPP[Nva(3-Et)]CIPD-NH2
# modifications: disulfide 3-11; N-terminus assumed
# SMILES: CCC(CC)[C@@H]1NC(=O)[C@@H]2CCCN2C(=O)[C@@H]2CCCN2C(=O)[C@H](CC(C)C)NC(=O)[C@H](CO)NC(=O)[C@H](CCCNC(=N)N)NC(=O)[C@H](CO)NC(=O)[C@@H](NC(=O)[C@@H](NC(=O)[C@H](C)N)[C@@H](C)CC)CSSC[C@@H](C(=O)N[C@H](C(=O)N2CCC[C@H]2C(=O)N[C@@H](CC(=O)O)C(N)=O)[C@@H](C)CC)NC1=O
# B16: Example 154: HIC+SRS-((tBu)A)-PPI-((N-Me)C)+I-NH2 (peptide)
# peptide: HICSRS[tBuAla]PPI[NMeC]I-NH2
# modifications: disulfide 3-11; N-terminus assumed
# SMILES: CC[C@H](C)[C@H](NC(=O)[C@@H]1CSSC[C@H](NC(=O)[C@@H](NC(=O)[C@@H](N)Cc2c[nH]cn2)[C@@H](C)CC)C(=O)N[C@@H](CO)C(=O)N[C@@H](CCCNC(=N)N)C(=O)N[C@@H](CO)C(=O)N[C@@H](CC(C)(C)C)C(=O)N2CCC[C@H]2C(=O)N2CCC[C@H]2C(=O)N[C@@H]([C@@H](C)CC)C(=O)N1C)C(N)=O
# Target: T1, recombinant rat MASP1 active protease …
# Assay: cell-based or functional assay
row,Binder,rat MASP1 IC50 [nM]
1,B1,59
2,B2,220
3,B3,17
4,B4,370
5,B5,130
6,B6,11
7,B7,35
8,B8,380
9,B9,300
10,B10,77
11,B11,13
12,B12,110
13,B13,28
14,B14,140
15,B15,330
16,B16,72
